Our source for the Kd values is patent US5668265, “Bi-directional oligonucleotides that bind thrombin” (Becton Dickinson and Company).

The target of the data set is alpha-thrombin (Homo sapiens, UniProt P00734;P00734 P00734:315-363,P00734:364-622). The data set can be described thus: SPR; apparent; solution competition vs immobilized consensus aptamer; same buffer, 25 C. (Surface plasmon resonance follows binding to a sensor surface in real time, without labels.)

B1: Compound 10 (consensus thrombin aptamer) (structured_DNA)
DNA: GGTTGGTGTGGTTGG
Consider B1, for which the Kd was 0.006 µM.

B2: Compound 12 (single segment) (ssDNA)
DNA: GGTTGGTT
Take B2: the Kd is 1.5 µM.
